Among the data in the RNAGym collection of RNA variant scans (doi:10.7554/elife.90254) are self-cleavage values, retold here.

B1: LINE1-full (parent)
chain: UACGUAGGUGGUUUUCCCCUGAUAGUGCUAAGGGGGCCUGGAAGUUUGGACUGGGCAGAGCUCAACACAGCGUGGCAAAGUGGCUGUGGCUAGACUGCCUCUCUGGAUUCCUCGUCACUCAGCAGGGCAUCUCUGAGAGAAAUGCC

The data set covers variants of B1. The data set can be described thus: self-cleavage, relative activity (ratio to wild type); higher = more cleavage; in vitro, sequencing; the parent is a self-cleaving ribozyme.
Consider U112C A117C, for which the self-cleavage was determined as 1.38. Then U112C G135A, with 1.44; and U115C C146A, with 1.82. Under U109C U130C stands 1.49; under U109C U130A, 1.24. Take U119A U143G: the self-cleavage amounted to 0.91. Under U119A U143C stands 1.93; under A117U A124C, 1.77. Then A117U A124U, with 1.26; and C120U G127A, with 1.48; and U109C U115C, with 1.22.

Regarding U109C U143G, the self-cleavage was determined as 0.87.

With U109C U143A, the self-cleavage came out at 1.18.

Turning to C113U C128U, the self-cleavage came to 1.17. Then U112C C131U, with 1.87.

Take U112C A140G: the self-cleavage is 0.83. Under C113A U115C stands 1.5; under C113A U115A, 1.55. Then C113A U130C, with 0.44. For the variant A121C A129U, the self-cleavage stood at 1.9.

A121C A129G: the self-cleavage was 1.23. Under U112C G127A stands 1.35; under C110U A136C, 2.76; under C110A U112C, 1.56.

As for C113G G125U, the self-cleavage worked out at 1.66. Under C116A A142C stands 1.54. As for G114A U119C, the self-cleavage stood at 1.2. Then C111A A117G, with 1.69; and A121C C146U, with 1.77; and U115G A136G, with 1.53. Under C118U U134C stands 1.13; under C113G C123U, 1.01.

For C120U C123A, the self-cleavage is 1.78. Then U115C A141U, with 1.27; and U112A A141G, with 1.43; and A117G A129U, with 1.29.

With U119A A121U, the self-cleavage turned out to be 1.67. Under U115A U134A stands 0.95; under C116U A124U, 1.87; under C116U A124C, 1.6.

Consider C110U U132C, for which the self-cleavage was found to be 1.45.

With U115C G122A, the self-cleavage was 1.77.

Turning to C110U A140G, the self-cleavage turned out to be 1.41. Under A117U A136G stands 1.51. Then A117U A136U, with 1.67; and C120G A129G, with 1.23. On to U119C U134A, for which the self-cleavage worked out at 1.92. Then U119C U130A, with 1.93; and U119C U130C, with 1.72; and U112A A129U, with 1.8. Then C120A G139U, with 1.59. As for U115C A140G, the self-cleavage was determined as 1.58. Then U115C A140U, with 1.39; and C110U U119C, with 1.39; and U109C U119A, with 0.7. With U109C U119C, the self-cleavage amounted to 1.61. Consider C113U C131G, for which the self-cleavage is 1.32. Then C113U C123U, with 1.35; and A117C G126A, with 1.64; and A117G A124G, with 0.69. Then C116U A129G, with 0.93; and C110A A140G, with 1.44; and A117U A138U, with 1.16. Then A117U A138G, with 1.52; and U115A A138C, with 1.8. For A117G A142G, the self-cleavage worked out at 1.25. Then C110U G126A, with 1.34. Under U115A A142G stands 0.9. Turning to U115A A142U, the self-cleavage was found to be 1.38. Consider C120A A142G, for which the self-cleavage was 0.91. Then C113U A140G, with 0.69. Under U119A U130C stands 1.85. Then U115C U143G, with 2.45; and U119C A121U, with 1.48; and C116A A124G, with 1.25. As to U115C A129G, the self-cleavage was found to be 1.64.

As to U119C G135A, the self-cleavage was found to be 2.34.

As to U112G G139A, the self-cleavage was found to be 1.15. Under A121C U134A stands 0.84; under U112C C145A, 1.39; under U115C U134C, 1.61.

Take U112G A136C: the self-cleavage was 0.61.

For C116U U132C, the self-cleavage was 0.91.

As for U112A U119C, the self-cleavage was found to be 2.45. On to U112A U119A, for which the self-cleavage came to 0. Under G114U A140G stands 0.91; under U112A U115C, 1.3.

A117C A121U: the self-cleavage came out at 2.02. Regarding U112A A117G, the self-cleavage worked out at 1.82. Under C113A U132C stands 1.44. For U115A U143C, the self-cleavage was 1.54.

Consider U115A U143A, for which the self-cleavage was 1.36. Then A117U U143C, with 1.43; and U119A A129U, with 1.37.

Turning to U112C C120U, the self-cleavage is 1.37. Then U115G A140G, with 2; and C113U A117C, with 1.68. Under C113U A117G stands 1.54; under C116U A140U, 0.71; under C110U A141U, 0.84. Then U112C A141G, with 1.57.

Consider A121C A136G, for which the self-cleavage was found to be 1.72. Then U119A G126A, with 1.3; and G114A A136U, with 2.15. Under U119A A141U stands 1.29; under C113U A124G, 1.31. Under U115A A140G stands 1.27; under U112A U134C, 1.56; under U112A U134G, 1.73. On to U112A U134A, for which the self-cleavage amounted to 1.09. Under U119C C146U stands 1.68; under U119G U134C, 1.76. For U112A A121G, the self-cleavage was 1.82. Then U112A A121C, with 1.92. Under U115A C128U stands 1.23. Under U119A U134A stands 1.42.

For the variant C111A U130A, the self-cleavage is 1.16. Under C113U G126A stands 1.62; under A117G G127A, 2.

In the case of G114U A142C, the self-cleavage was determined as 0.95. Under U119C C145U stands 1.25; under G114U, 1.4; under G114C, 1.63.

On to G114A, for which the self-cleavage stood at 1.17. Then A117U C128A, with 0.99.

For the variant A117U C128U, the self-cleavage turned out to be 0.86. Under U112C A129U stands 1.67.

Regarding C120A U134C, the self-cleavage is 1.65. Then U109G A124G, with 1.04. In the case of U115C G144A, the self-cleavage came to 2.69. Then U109G C128U, with 1.17.

With U115C A142G, the self-cleavage is 2.05. Under U115A A136G stands 1.68. Then A117G A121G, with 1.38; and A117G A121U, with 1.86; and A117G A121C, with 1.78. Under U112C G144A stands 1.58; under G114A A117U, 1.34; under G114A A117G, 1.27. Regarding U112A A140U, the self-cleavage was determined as 1.79.

As for C120U A142G, the self-cleavage came out at 1.59. Then C120U A142U, with 1.52; and G114A A141G, with 0.89.

In the case of C110A G139C, the self-cleavage came to 1.08. Then C110A G139A, with 1.17.

As to A117U C131A, the self-cleavage amounted to 1.27. Turning to U112C A124C, the self-cleavage is 0.77. Under U112C A124G stands 0.64.

For the variant U112C G125A, the self-cleavage amounted to 1.6.

For the variant U112A U143C, the self-cleavage was 0.83.

As to A117C A141G, the self-cleavage turned out to be 2.57.

Turning to U119C G144A, the self-cleavage came to 1.26. Then U115C A121C, with 1.66. Then U115C A121G, with 1.42. With U115C A121U, the self-cleavage is 2.06.

U109G G127A: the self-cleavage was found to be 1.53. Under C113U U115C stands 1. C113U U115A: the self-cleavage came out at 1.05. Then G114A A129U, with 1.33; and G114A A129G, with 1.26.

For the variant C113U A142G, the self-cleavage was 0.91.

Turning to C111U A136G, the self-cleavage was determined as 1.26. Under U115A A117U stands 1.82; under C113U U143C, 1.05. Turning to U112A U130C, the self-cleavage is 1.6. Regarding U119A A136U, the self-cleavage is 1.3. Take C118U U143A: the self-cleavage is 1.31.
